Test results from patent US20130245224A1.
Values joined by “and” are separate entries in the source; they are usually repeats but may differ in a detail not shown here. Equal values may be shown once.

Key:
[1] = biological target: Gammanorm 165 mg/ml (Octapharma), diluted to 1 mg/ml in Equilibration buffer; assay: column breakthrough, ligand on agarose, residence time 2.4 min
[2] = biological target: Gammanorm 165 mg/ml (Octapharma), diluted to 1 mg/ml in Equilibration buffer; assay: column breakthrough, ligand on agarose, residence time 6.0 min

Qb5 (dynamic binding capacity at 5% breakthrough) [1]: 28.5 mg/ml resin and 29.9 mg/ml resin | Qb10 (dynamic binding capacity at 10% breakthrough) [1]: 31.4 mg/ml resin and 32.2 mg/ml resin | Qb80 (dynamic binding capacity at 80% breakthrough) [1]: 43.8 mg/ml resin and 46.1 mg/ml resin | Qb5 (dynamic binding capacity at 5% breakthrough) [2]: 38.1 mg/ml resin and 38.5 mg/ml resin | Qb10 (dynamic binding capacity at 10% breakthrough) [2]: 40.6 mg/ml resin and 40.4 mg/ml resin | Qb80 (dynamic binding capacity at 80% breakthrough) [2]: 46.7 mg/ml resin and 47.1 mg/ml resin
Substance: Regular Z2: ligand dimer containing two copies of protein Z (SEQ ID No. 3 but without the P57I substitutions) (designed binder)
